Measured values published in PMC4598119, “Cancer-Related NEET Proteins Transfer 2Fe-2S Clusters to Anamorsin, a Protein Required for Cytosolic Iron-Sulfur Cluster Biogenesis” (PLoS ONE, 2015).

B1: mitoNEET (mNT), soluble domain (residues 33-108), holo (domain or fragment, human, UniProt Q9NZ45 33-108, looked up)
chain: RFYVKDHRNKAMINLHIQKDNPKIVHAFDMEDLGDKAVYCRCWRSKKFPFCDGAHTKHNEETGDNVGPLIIKKKET
notes: mitoNEET (CISD1), human, soluble domain, residues 33-108; Homodimer; each protomer holds one 2Fe-2S cluster (3Cys:1His); at least 98% cluster occupancy; also called holo-mNT; CISD1; source: expressed and purified as described previously [19, 23]
B2: nutrient-deprivation autophagy factor-1 (NAF-1), soluble domain (residues 57-135), holo (domain or fragment, human, UniProt Q8N5K1 57-135, looked up)
chain: RPFLPKKKQQKDSLINLKIQKENPKVVNEINIEDLCLTKAAYCRCWRSKTFPACDGSHNKHNELTGDNVGPLILKKKEV
notes: NAF-1 (CISD2), human, soluble domain, residues 57-135; Homodimer; each protomer holds one 2Fe-2S cluster (3Cys:1His); at least 98% cluster occupancy; also called holo-NAF-1; miner1; source: expressed and purified as described previously [19, 23]

Columns and labels:
[1] = molecular target: T1, apo-Anamorsin (cytokine induced apoptosis inhibitor-1), biotinylated (human, UniProt Q6FI81 1-312, biotin (EZ-Link Sulfo-NHS-LC-biotin, 2:1 molar ratio of reagent to protein)); test: BLI; Octet Red96; biotinylated apo-Anamorsin (3.5 uM) immobilised on streptavidin biosensors; holo-NEET in solution; 50 mM bis-tris, 100 mM NaCl, 0.1% Tween 20, 0.5 mg/ml BSA, pH 7.0, without DTT; association 900 s, dissociation 1800 s; 1:1 model; settings: both partners purified
T1 construct: Anamorsin (CIAPIN-1), human cDNA (Abgent) subcloned into pET28-a(+) between NdeI and XhoI; Without clusters; The vector adds a 6x his-tag and a thrombin cleavage site at the N-terminus; no cleavage is described; also called CIAPIN-1; source: E. coli BL-21 Codon Plus (DE3) RIL, purified (Ni-NTA, HiTrap Q anion exchange); 2Fe-2S cluster removed by the method of Kennedy and Beinert
T1 sequence (Q6FI81 whole entry): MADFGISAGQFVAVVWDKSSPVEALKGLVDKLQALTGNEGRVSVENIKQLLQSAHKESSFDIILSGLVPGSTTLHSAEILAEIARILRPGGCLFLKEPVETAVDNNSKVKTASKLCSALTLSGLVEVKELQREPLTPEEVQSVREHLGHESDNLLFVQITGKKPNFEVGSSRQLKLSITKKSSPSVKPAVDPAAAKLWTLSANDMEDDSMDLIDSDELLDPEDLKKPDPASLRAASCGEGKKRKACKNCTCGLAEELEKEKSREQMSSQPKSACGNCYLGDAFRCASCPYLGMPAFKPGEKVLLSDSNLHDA

[2] = molecular target: T2, holo-Anamorsin (prepared via cluster transfer from NAF-1), biotinylated (human, UniProt Q6FI81 1-312, biotin); test: BLI; biotinylated holo-Anamorsin (prepared via cluster transfer) immobilised on streptavidin biosensors; 16 uM holo-NAF-1 or 32 uM holo-mNT; association 900 s, dissociation 1800 s; 2:1 heterogeneous ligand model; average of two trials; settings: both partners purified
T2 construct: Anamorsin (CIAPIN-1), human cDNA (Abgent) subcloned into pET28-a(+) between NdeI and XhoI; same chain as m3; also called post-cluster transfer Anamorsin; CIAPIN-1; source: E. coli BL-21 Codon Plus (DE3) RIL, purified; apo form loaded by cluster transfer from NAF-1, then purified from NAF-1 on HiTrap Q anion exchange
T2 sequence (Q6FI81 whole entry): as above

Row | Binder | koff [1] [s⁻¹] | kon [1] [M⁻¹ s⁻¹] | fold change of koff against apo-Anamorsin [2] [fold]
1 | B1 | 6.17e-05 | 317 | 50
2 | B2 | 0.0011 | 783 | 
